Measured values taken from patent US20050042220A1 (GENETICS INSTITUTE, published 2005).

B2: human IL-22R extracellular domain-Fc fusion homodimer (Fc fusion)
chain: HAPEDPSDLLQHVKFQSSNFENILTWDSGPEGTPDTVYSIEYKTYGERDWVAKKGCQRITRKSCNLTVETGNLTELYYARVTAVSAGGRSATKMTDRFSSLQHTTLKPPDVTCISKVRSIQMIVHPTPTPIRAGDGHRLTLEDIFHDLFYHLELQVNRTYQMHLGGKQREYEFFGLTPDTEFLGTIMICVPTWAKESAPYMCRVKTLPDRTWTAGSGSGSG
notes: extracellular domain; Used as CHO conditioned medium, not purified; also called IL-22R-Fc; IL-22RECD-Fc; not shown: human IgG1 Fc
B3: biotinylated N terminal His/Flag tagged human IL-22 (ligand)
chain: GSGHHHHHHGSGDYKDDDDKAPISSHCRLDKSNFQQPYITNRTFMLAKEASLADNNTDVRLIGEKLFHGVSMSERCYLMKQVLNFTLEEVLFPQSDRFQPYMQEVVPFLARLSNRLSTCHIEGDDLHIQRNVQKLKDTVKKLGESGEIKAIGELDLLFMSLRNACI
modifications: biotinylated with EZ-Link Sulfo-NHS-Biotin (sites not given)
notes: also called bio-IL-22; biotinylated IL-22

Columns and labels:
[1] = target: B3; assay: blocking ELISA: IL-22BP-Fc pre-incubated 30 min with bio-IL-22 (5 ng/ml), added to 50 ng/ml total Fc of co-expressed IL-22R-Fc/IL-10R2-Fc captured on anti-human IgG wells; bound bio-IL-22 read with streptavidin-HRP, A450; blocked partner IL-22R-Fc/IL-10R2-Fc
Experimental: (§1) After a final set of washes, 100 μl of TMB Microwell peroxidase substrate (BioFX, Owings Mills, Md.) was added for 20 minutes and the reaction stopped with 100 μl 2N H₂SO₄. Colorimetric detection of the peroxidase product was done at 450 nm in a Molecular Devices (Sunnyvale, Calif.) microplate reader.
(§2) For certain ELISA assays of the above format where both the receptor Fc and bio-IL-22 are at a fixed concentration, IL-10R2-Fc was added at various concentrations either before or with bio-IL-22 (FIG. 9A) or after the bio-IL-22 (FIG. 9B). For other ELISA assays of the above format where the indicated receptor Fc and bio-IL-22 are also at a fixed concentration, antibodies (FIG. 10B-10C., 11C) or IL-22BP (FIG. 11A-11B) were added at various concentrations after a pre-incubation with the bio-IL-22 for 30 minutes. For ELISA assays in which the recruitment of IL-10R2-Fc to the IL-22/IL-22R complex was detected directly (data not shown, experimental design of FIG. 9A), non-biotinylated IL-22 was added to the ELISA and either polyclonal goat anti-hIL-10R2 or a mouse monoclonal anti-hIL-10R2 (R&D Systems, Inc, Minneapolis, Minn.) was used as detector.
(§3) IL-22 binding protein (IL-22BP) is a soluble ‘receptor’ for IL-22 that has low homology to the extracellular domain of IL-22R. […]

[2] = target: B3; assay: competition ELISA (printed as ND50): IL-22BP-Fc pre-incubated with bio-IL-22 5 ng/ml, binding to captured IL-22R/IL-10R2-Fc heterodimer (FIG. 11B by its legend); IL-22R/IL-10R2-Fc heterodimer immobilized (FIG. 11B; printed as FIG. 6B)
Experimental: Colorimetric detection of the peroxidase product was done at 450 nm in a Molecular Devices (Sunnyvale, Calif.) microplate reader.
as §2
IL-22 binding protein (IL-22BP) is a soluble ‘receptor’ for IL-22 that has low homology to the extracellular domain of IL-22R. It neutralizes signal transduction mediated by IL-22 (Dumoutier, L. et al. (2001) J Immunol 166(12):7090-5; Kotenko, S. V. et al. (2001) J Immunol 166(12):7096-103; Xu, W. et al. (2001) Proc Natl Acad Sci USA 98(17):9511-6; Wei C-C et al. (2003) Genes & Immunity 4:204-21117). […]

[3] = target: B3; assay: competition ELISA (printed as ND50): IL-22BP-Fc pre-incubated with bio-IL-22 30 ng/ml, binding to captured IL-22R-Fc; IL-22R-Fc homodimer immobilized (FIG. 11A)
Experimental: as §1, §2, §3

[4] = target: B3; assay: blocking ELISA: IL-22BP-Fc pre-incubated 30 min with bio-IL-22 (30 ng/ml), added to 50 ng/ml IL-22R-Fc captured on anti-human IgG wells; bound bio-IL-22 read with streptavidin-HRP, A450; blocked partner IL-22R-Fc
Experimental: as §1, §2, §3

[5] = target: B3; assay: ELISA, bio-IL-22 on streptavidin plates, IL-22R-Fc titrated (FIG. 6B)
Experimental: (§4) FIG. 6B depicts the results form an ELISA assay performed in the opposite format, whereby 100 µl of 1 µg/ml biotinylated IL-22 was added to Reacti-Bind 96 well streptavidin-coated plates (Pierce, Rockford, Ill.) for one hour. After washing, Fc fusion receptor was added at various concentrations to the plates for one hour, washed and then detected with goat anti-human IgG-HRP. In FIG. 6A, fifty ng/ml of total Fc in conditioned media (CM) from CHO cells expressing either IL-22R-Fc (▪) or IL-10R2-Fc (O) was captured onto anti-human IgG coated wells. Biotinylated IL-22 (bio-IL-22) at various concentrations was then added to the wells. Bound bio-IL-22 was subsequently detected using streptavidin-HRP. In FIG. 6B, bio-IL-22 (1 μg/ml) was captured onto streptavidin plates. Various concentrations of either IL-22R-Fc (▪) or IL-10R2-Fc (O) in diluted CHO. CM was then added to the wells. Bound receptor Fc was subsequently detected using goat anti-human IgG-HRP.
IL-22 binding to the extracellular domain (ECD) of IL-22R and IL-10R2 was evaluated using two ELISA formats. In the first version, receptor-Fc fusion proteins were immobilized via the Fc domain on anti-human IgG coated plates. Biotinylated IL-22 was then added and detected with streptavidin-HRP. […] Receptor-Fc were then added and detected with HRP-conjugated, anti-hIgG.

[6] = target: B2; assay: ELISA, IL-22R-Fc captured on anti-human IgG, bio-IL-22 titrated (FIG. 6A)
Experimental: as §1
as §4, with “Various concentrations of either IL-22R-Fc (▪) or IL-10R2-Fc (O) in diluted CHO. CM was then added to the wells.” left out
IL-22 binding to the extracellular domain (ECD) of IL-22R and IL-10R2 was evaluated using two ELISA formats. […] Biotinylated IL-22 was then added and detected with streptavidin-HRP. […] Receptor-Fc were then added and detected with HRP-conjugated, anti-hIgG.

[7] = target: T1, IL-22R-Fc/IL-10R2-Fc heterodimer from co-expressing CHO cells (human, UniProt Q8N6P7 16-228; Q08334 20-220); assay: ELISA, 50 ng/ml total Fc from co-expressing CHO captured on anti-human IgG, bio-IL-22 titrated (FIG. 8A)
T1 construct: extracellular domain; also called IL-22R/IL-10R2-Fc heterodimer; IL-22R-Fc/IL-10R2-Fc complex; not shown: human IgG1 Fc
T1 sequence 1: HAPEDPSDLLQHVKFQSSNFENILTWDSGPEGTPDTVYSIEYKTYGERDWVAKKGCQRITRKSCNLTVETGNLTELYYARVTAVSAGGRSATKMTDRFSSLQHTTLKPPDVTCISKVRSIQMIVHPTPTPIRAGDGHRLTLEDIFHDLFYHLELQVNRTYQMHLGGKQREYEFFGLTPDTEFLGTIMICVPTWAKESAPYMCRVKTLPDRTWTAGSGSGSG
T1 sequence 2: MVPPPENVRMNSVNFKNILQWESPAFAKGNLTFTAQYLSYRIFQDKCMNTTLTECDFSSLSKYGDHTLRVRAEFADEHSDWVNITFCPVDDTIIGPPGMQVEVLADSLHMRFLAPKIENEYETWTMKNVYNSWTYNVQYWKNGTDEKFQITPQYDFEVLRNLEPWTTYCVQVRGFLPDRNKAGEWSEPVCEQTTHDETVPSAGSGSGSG
Experimental: The results shown in FIGS. 6A, 8A-8B, 9A-9B, 10B-10C and 11A-11C were obtained from ELISA assays where receptor Fc from CHO CM were first immobilized via an anti-hIgG coat. Flat bottom, 96-well ELISA plates (Costar, Cambridge, Mass.) were coated overnight at 4° C. with 100 μl goat anti-human IgG antibody (Southern Biotech Associates, Inc., Birmingham, Ala.) at 1 μg/ml in 0.1 M sodium carbonate buffer (pH 9.6). The plates were washed twice with 200 pi phosphate-buffered saline containing 0.05% Tween 20 (PBS-T), blocked with 100 μl 1% BSA (Sigma, St. Louis, Mo.) in PBS-T for 1 hour and washed three times. Following by one hour sequential incubations (100 ul), each separated by three washes, were then employed: a given receptor fusion(s) at a fixed concentration or serially diluted, biotinylated IL-22 (bio-IL-22) at a fixed concentration or serially diluted, and then 1/10,000 dilution of streptavidin-horse radish peroxidase (HRP) (Southern Biotech Associates, Inc., Birmingham, Ala.). […] Colorimetric detection of the peroxidase product was done at 450 nm in a Molecular Devices (Sunnyvale, Calif.) microplate reader.
IL-22 binding to the ECD of IL-22R and IL-10R2 secreted as Fc heterodimer was then evaluated. […] The ability of cytokine to bind was then evaluated using various concentrations of bio-IL-22 as the detector (FIG. 8A). […]

B1: human IL-22 binding protein-Fc fusion (Fc fusion)
chain: TQSTHESLKPQRVQFQSRNFHNILQWQPGRALTGNSSVYFVQYKIYGQRQWKNKEDCWGTQELSCDLTSETSDIQEPYYGRVRAASAGSYSEWSMTPRFTPWWETKIDPPVMNITQVNGSLLVILHAPNLPYRYQKEKNVSIEDYYELLYRVFIINNSLEKEQKVYEGAHRAVEIEALTPHSSYCVVAEIYQPMLDRRSQRSEERCVEIPAGSGSGSG
notes: Fc fusion homodimer, used as CHO conditioned medium; also called IL-22BP-Fc; huIL22BP-huFc; not shown: human IgG1 Fc
Q: For B1, which “IC50 (read off the curve)” value [1] is on record?
A: ~0.2 nM

Q: And the IC50 [2]?
A: 2 nM

Q: What about the IC50 [3] of the same binder?
A: 4 nM

Q: And the “IC50 (read off the curve)” value [4]?
A: ~0.5 nM

Q: With B2 as the binder, how does the EC50 [5] read?
A: 0.006 µg/mL

Q: Which results are given for B3?
A: EC50 [6]: 0.02 µg/mL; fold less bio-IL-22 needed for a comparable signal than with immobilized IL-22R-Fc homodimer [7]: 8 fold
